Reference: patent publication US20110237462A1 (FUJIFILM, published 2011)

Target: T1, MBP-VH(BGP) labeled with ALEXA FLUOR 555 together with MBP-VL(BGP) labeled with ALEXA FLUOR 647 (labeled with ALEXA FLUOR 647 (labeled residues not stated); labeled with ALEXA FLUOR 555 (labeled residues not stated))
T1 construct: Two separate MBP-fused antibody fragments, covalently immobilized on a carboxymethyl dextran glass substrate; The MBP leader is part of the printed entries; also called fusion protein of anti-osteocalcin (BGP) VH-region polypeptide with MBP; fusion protein of anti-BGP VL-region polypeptide (antibody KTM219) with MBP
Test: FRET on immobilization substrates I and J

B1: C-terminal heptapeptide fragment of BGP (RRFYGPY) (peptide)
peptide: RRFYGPY
notes: also called BGP heptapeptide; BGP heptapeptide (RRFYGPY)
B1: binds.
